Assay: label from the status in PepcDB records

Sequence | protein production
MYSALLNADIRIYGYLRASTDEQDASRAKNELMLFAEQMGFQVACWFEENESGAQLKRPELFRLLDIAISGDVILVEQVDRISRLNTQDWEKLKLMINKKGLKVVSLDLPTSYQFMSNTDDFTERMLSALNGMMLDMLAAVARKDYEDRRRRQAQGVQRAKLEGKYKGRPINTKLHNKIEGLLRENKSYSQIENLLGCSRHTISKVSKLIKSSIG | failed
MYSKIEGSIITARFDKETDFFTDLVDLCNKYEVKSGTVLWAIGMLKEFQIGYWNGNDYEKETFRERLELVSLHGSIAENDPRFHIHAAGARGNHGIVGGHLFSAKVDPLVEIQIMKITGFSMSRELDNSDGLYKLVIKLEHHHHHH | failed
MYSNSKCNKFLMYFIFIIFLFCSCQTFYPKNSPEFSFIENSGKNFVWEKLTEGIFLSHIKYEDYPLIIHAVKIDLTNPKLKIVVTEPALFNSKGMVKRETTLSFARRHNTVIALNAAFFNVISFSFSLRGEPLGIHIDKKINLSKPFPKYGALCFLDDNSAFIIESQNTEDIKADIEYAVSGNRIILKNGKPIITNISKKENSRTCVGLADGGKTLYLFFAEGENKKKSRGITYDQAHFFMKKLGAQDAIHLDGGGSSSLIIKKENSFFVQVPSISHFGLRKVVTNLGFIIED | failed
MYSPFEILYLAIIIDSLSYTIGALLYGSPIPVRGFKEMGHKMIVNSIYVAVLANIFGLILSILSQLQNIVGANWSTFYLDIGLLQIQTGVAINMGKFLYGIIALILYYFKVPSQFYSLVTPLLQYISFLTDILILLNFYMDLGIFIQSSYMVLIAIGILLMALPFQMGKGIGAMLISFTIVFYVGLPLLPILISNSSPLQNQNFVLQDISLQTEEFYAQIPALFYSFILIPLTYVGVLVGFSVVLQSFIGGYVGRLPIPVEI | failed
MYSYADRIRAVALYIKLGLRVRATIRQLGYPTKNALKGWYQHYLKHQDLPASQAPRAPKYSLQQRQVAIAHYLAHDRCIAATMRALGYPGRGTLTAWVRQDCPDTCKSRVGRSWPATKPDALMCEGVVQLCARRSSAQQIADKLGVCRGTLYNWKNQLLGPCAPASMKHSPKRSPVLDEAALRRQVESLRQDVRRLKIERELLKQAHEILKNGADIDLHRLANKDKAVLVEALHGQYELPELLSLVGLARSSYFYHRARLKLADKYVDLRRSITEIFDNNYRCYGYRRVQASLLKECTGISEKVVRRLMKQEGLIVAKPKRRRYNSYLGEIGAAPQNLINRDFRAAAPNEKWLTDITELQIPAGKVYLSPVIDCFDGLVVSWSIGTHPNAHLVNTMLDAAIDAVQGSESRPVIHSDRGAHYRWPGWLSRVHDAKLTRSMSRKGCSPDNAACEGFFGRLKMELFYPNNWQSTTIEQFIEAVDAYIRWYNEKRIKVSLGRLSPVEYRHKLGLAA | failed
MYSYADRLRAVELYIRLGKRLNTTIRQLGYPTKNALRGWYREYVQHLDLRTQPVARAPKYSEAQRQAALEHFRTHDRCISGTMRALGYPGRGTLTAWVREAFPEARTSMVGRSWHPGYSEEVRQAGVIGLCSGDESAQQVADRLGVSRPTLYSWKDQLLGHEASSSMKRRKANPKVPEREELERKLEALQRDVRQLQLEHDLLKKANELLKKGLGVDLLILSNREKTQLIDALKEVYRLPELLAQLRIARSSYFYHRARMCLADKYAAVRLSLAEIFEANRRCYGYRRLQASLARKSVIVSEKVVQRLMKQEHLAVARPRRRRFGSYLGEISPAPENLINRDFHADAPNVKWLTDITEFQIPAGKVYLSPIIDCFDGMVISWSIGTQPDAGLVNTMLDAAIGTVANGEERPIIHSDRGAHYRWPGWLTRISEARLVRSMSRKGCSQDNAACEGFFGRLKTELFYPRDWKAITIEQFVAEVDAYIRWYNEKRIKISLGSLSPVEYRQSLGLKLLEHHHHHH | not failed
MYTCKNKERMLMYKTIIMPVDVFEMELSDKAIRHAEFLAQDDGVIHLLHVLPGSASLSLHRFAADVRRFEEHLQHEAEERLQTMVSHFTIDPSRIKQHVRFGSVRDEVNELAKELDADVVVIGSRNPSISTHLLGSNASSVIRHANLPVLVVR | failed
MYTNVHSANNYQANLSNRSYGFKELAVLYFPNIAPASASIRLKQWIKDDVELLGSLEETNYHLSNRILTPKQRDLITTTFGSPFLEHHHHHH | failed
MYVFIEPNDLKDYLITVYDERNRAIRKQTQVYCFYLMIVLFVALFFFFPCLTIRDLVSYKLPLIFAYLYLIIRSLVAKKMEALGKITTNSQKPPFDTSQVLC | failed
MYVTTGTNDILLTINDYVNKETASYQLTDISNNTLISEIIEKIKVLKNYTYSSTDLVLYFARVECKLSEKLSTYNKSNRKTIKLELYLSKLITINVRTLQSCGTGTSRCIPFWSFCFRQNIKIKIIDTCEVRVLKQKIYNLTDESTSIPVENIVLLYKGAPLNNFLTLKESELIDNCRIDYFVPLCYIYKKKKEESDEDEDENEEKLKEHTKSEDKKVDTQQNENVKSENVNNENVKNENVNNENVKNENVNNENVNNENVNIENVKNDNNDNAKKC | failed
MYYKQLDSLVFTDGESIAKARLASMTDMWFSSDLHLGHKFVASMRGFDDPDEHDEVILSNFENTIGPDDVLWILGDLSSGAHRAEERALGLIAERLGGVVKHLVPGNHDSCHPMYRHAYKRQRRFLEVFDSVQAFQRMKWDDEDVYLSHFPRPGQDHPGMESRFDDLRLRVPLLIHGHLHSQFPMTGPGQVDVGVEAWGLKPAPRELVQLKLWESLSEKILEHHHHHH | failed
MYYVIFAQDIPNTLEKRLAVREQHLARLKQLQAENRLLTAGPNPAIDDENPSEAGFTGSTVIAQFENLQAAKDWAAQDPYVEAGVYADVIVKPFKKVF | not failed
NATTLPEALKLMQYIGDAIGTIRDPQELFRTVTDKLRLLFAFDSAVIITIDRERREASVFFEMLRFELPEQLRHQTRSIAGTWLEGHLDDRTVTVASIARDIPSFGADGAPLLWTLHELGMRQIVLSPLRSGGRVIGFLSFVSAEEKLWSDGDKSLLSGVSSSIAIAVSNALAYEELRQREAETSMQLAINNALFTI | not failed
NDQDAIQEKFYPPRFIQVPENMSIDEGRFCRMDFKVSGLPAPDVSWYLNGRTVQSDDLHKMIVSEKGLHSLIFEVVRASDAGAYACVAKNRAGEATFTVQLDVLAKEHKRAPMFIYKPQSKKVLEGDSVKLECQISAIPPPKLFWKRNNEMVQFNTDRISLYQDNTGRVTLLIKDVNKKDAGWYTVSAVNEAGVTTCNTRLDVTARPNQTLPAPKQLRVRPTFSKYLALNGKGLNVKQAFNPEGEFQRLAAQSGLYESEEL | failed
NGADVQVSNIDYRLSRKELQQLLQEAFARHGKVKSVELSPHTDYQLKAVVQMENLQDAIGAVNSLHRYKIGSKKILVSLATGA | not failed
NGDPQWLVQAARTAVLRTYEYGRALLKGLFTDSPFNIDIFDTQLRFVGLNIAERRAGVFQGTEYSGHTMREMAPPGLLDVDALEARQRRVLETGKALIDTEVVGHPVANSPREYVWSESILPLRDPSGRVIALGHVVSDV | failed

Sequence | protein production
NGNPIPMGYSQAVENNVQITNFALFSAAAIGVELCLFDEQNQETRLPMVRTENVWHLAVTGVKTGTEYAFRIHGEFANPQKLILDPYAKAVNGKPDLSSEESRSWFLLSDNRDNAHLAPRAVVIS | failed
NGQSDVKHIGILQYVEHPSLTATRKGFIKELAKEGYKDGKNIKIEYKNAQGDQSNIQSISEKLIKDNKLVLGIATPAAQSLTTVSTETPILFTAVTDPVSAELVKSMKKPEGLATGTSDMSPIKKQVSLLRKVMPKVKRVGIMYTTSERNSEVQVKQAKKIFQEAGIKTSVKGISSTNDVQDTAKSLMSKTEVIFVPTDNIIASSVTLLGNLSKELKVPVVGGSADMVPSGLLFSYGADYEALGRQTARQAVKILKGKDVAKVPSEYPQNLKVVVNEDMAKELGIDVSSIK | not failed
NIILASRSLDKCYAIKESMLKKGLGEIGVEQVDADDTQALVALIQKYKPKVVINVALPYQDLTIMQACLETKTHYIDTANYEHPDLAKFEYKEQWAFDRAYKEVGILGVLGAGFDPGVTNAYVAHAQKHHFDTIHTLDILDCNAGDHKRPFATNFNPEINL | failed
NNQIGFCGVRKNINGNLYLLVYGMPAAINIDPIEKKPILHMYPNSLIYSISTVGCSFACQYCQNYDISQRRNIEGFDYSPEEIVNSAIEDGCRGIAYTYNEPSIFMEFAHDVGILARKRGLINIFVTNGYETPEAVEYSKDFLDAATVDFKGNASNDFYRKYISVPSADPIFDTIKLMKESGIHVEITDLVVPRVGDKLSDARSMLERLISILGYEFPISFLRFHPDYKMMDLPPTPLETLKAHYNLAVSMGLKYVYIGNVPGYYEDTYCPNCHSLLIKRHGFNSSVV | failed
NNTPIGTLRIGCSSTMAQNVLARITAKMLKEYPGLSVNLVTGIPAPDLIADGLDVVIRVGALQDSSLFSRRLGSMPMVLCAAKSYLAQAGNPEKPADLAGHAWLEYSVRPDNEFVIIAPEGISTRLTPQGRFVTNDPMTL | failed
NPQIREEVALDTQTGANPSAEELADGDIQAVAQAANERTGALFVVITDGLGIRLSHPDEERLGEQVSTSFEAAMRGEETMAWETGTLGASARAKVPIFAPDSSVPVGEVSVGFERDSVYSRLPMFLAA | failed
NQQTPTFYVHGFQGSAKSTNTLIAHAEKTAHAHKVLVATVSTSGQVTLTGKWRGRVRNPIIQVVFKNNLAQYDQQSAWLAKVITTVQQQHAFKHYNIVAHSAGCVASVNMLMTQQTTTFPKINKLVTIAGPFDGVVGEDDVANQNSFLTSGQPKYLHAAYELLAAKRNNFPKNVQLLNIVGTLNDGSHSDSLVTNVSARSIKYLLRGRDVDYTEKDFYGAHAQHSQLHENAKVALAVDRFLWHR | failed
NRCTFACVFCQNYDIVYEDDYIVDARELAYIIDVRRRQGSKNVNFVGGNPDQHAHTIAEILLYVESNVPVVWNSNMYHSEELAEVIEDFVDVWLGDFKYGNDECARKYSKVANYWKVVTRNFLRAKENG | failed
NRLLSKYDPQKEAELRTWIEGLTGLSIGPDFQKGLKDGTILCTLMNKLQPGSVPKINRSMQNWHQLENLSNFIKAMVSYGMNPVDLFEANDLFESGNMTQVQVSLLALAGKAKTKGLQSGVDIGVKYSEKQER | not failed
NSTWSGESKTLVLSNLSYSATEETLQEVFEKATFIKVPQNQNGKSKGYAFIEFASFEDAKEALNSCNKREIEGRAIRLELQGPRGSPN | not failed
NTDYYGLDYALSFNQVEIEEKRIVIAGSGGIARTVIRYMLDHGAHRVDVLTRNAQNARRNLDIPGIGLHENIDEDYDIYVNCTPLGTLGDGDPFSTVDFRSGRTGIDLVYNPPDTPFLKRMRNAGGRTVSGLDVFIGQGLRTLELVFGIRPDSIFREYAVEALNEIR | failed
NTITVSELLELIKKEDVIIVDTRSPREFKEETLPGAINIPLFLDDEHALIGKTYKQESREKAIEIATDIVEKSLKRILNEAKKLDRDKLIVVFCARGGMRSQTMALILQLLGFKVKRLIGGFKAFKHA | not failed
NVAYPLGEGLLSFAESLESQKIHFTTEVITSRIEPANRYVAEKLRITPGQDILYLERLRSIGDEKAMLIENRINIELCPGIVEIDFNQHNLFPTIESLSKRKIRYSESRYAARLIGNERGHFLDISEDAPVLHLEQLVFFSRELPVEFGNVWLKGNKYYLGTVLQRRELS | not failed
NVVLRILAWLLAVGLVVLPVVAVLNGWVGAERWPLAKLRVSGDFKRVSAEELRAVVLPYVRSGFFAVRLPQVQDAVERLPWVERAHVSKRWPDVLEVSVVEHQPFARWGSDRMLSEQGRLFPVPGGLKNLKLPQLGGPDMKVRDVVALYKASSALFASTGLDVSWLQMDARGSWSLGLSNGLQIFVGRDDARARLERFARVLPQLLDPQRPVVRADLRYTN | failed
NVYDLANELERAVRALPEYQAVLTAKSAIESDADAQVLWQDFLATQSKVQEMMQSGQMPSQEEQDEMSKLGEKIESNDLLKVYFDQQQRLSVYMSDIEKIVFAPMQDL | not failed
